Values of other authors as cited in patent US20040126825A1, “Methods of screening and using inhibitors of angiogenesis” (Allergan, Inc, priority 2001, published 2004).

System: MMP-2
Conditions: cultured breast carcinoma cells; Deryugina et al. 2001

Substance: vitronectin: a specific ligand of αvβ3
- activation of MMP-2 (conversion from pro-form to active form): inhibited
